This note sets out measurements from PMC11098746 (2024).

The assay deals with Circumsporozoite protein (CSP) (Plasmodium falciparum (isolate 3D7), UniProt Q7K740). Nature of the assay: AVEXIS screen signal:noise (double-corrected).
Chain of Circumsporozoite protein (CSP) (Q7K740 19-374): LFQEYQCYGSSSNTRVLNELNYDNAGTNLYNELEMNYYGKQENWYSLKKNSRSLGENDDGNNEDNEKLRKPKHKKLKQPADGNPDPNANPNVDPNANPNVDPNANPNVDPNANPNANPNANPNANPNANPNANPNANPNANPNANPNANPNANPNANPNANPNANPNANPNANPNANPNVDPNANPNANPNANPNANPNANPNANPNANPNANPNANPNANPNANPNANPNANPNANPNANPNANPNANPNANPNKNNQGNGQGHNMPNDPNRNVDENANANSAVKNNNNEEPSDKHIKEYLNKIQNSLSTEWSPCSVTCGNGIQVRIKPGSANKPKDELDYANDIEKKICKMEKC

B1: ADP292 (protein)
chain: MARPGSAQRWAAVAGRWGCRLLALLLLVPGPGGASEITFELPDNAKQCFYEDIAQGTKCTLEFQVITGGHYDVDCRLEDPDGKVLYKEMKKQYDSFTFTASKNGTYKFCFSNEFSTFTHKTVYFDFQVGEDPPLFPSENRVSALTQMESACVSIHEALKSVIDYQTHFRLREAQGRSRAEDLNTRVA
modifications: bait human Fc-tagged dimer
Take B1: the binding score came to 1.08.

B2: ADP131 (protein)
chain: MVRMVSWSFHKLKTMKHLLLLLLCVFLVKSQGVNDNEEGFFSARGHRPLDKKREEAPSLRPAPPPISGGGYRARPAKAAATQKKVERKAPDAGGCLHADPDLGVLCPTGCQLQEALLQQERPIRNSVDELNNNVEAVSQTSSSSFQYMYLLKDLWQKRQKQVKDNENVVNEYSSELEKHQLYIDETVNSNIPTNLRVLRSILENLRSKIQKLESDVSAQMEYCRTPCTVSCNIPVVSGKECEEIIRKGGETSEMYLIQPDSSVKPYRVYCDMNTENGGWTVIQNRQDGSVDFGRKWDPYKQGFGNVATNTDGKNYCGLPGEYWLGNDKISQLTRMGPTELLIEMEDWKGDKVKAHYGGFTVQNEANKYQISVNKYRGTAGNALMDGASQLMGENRTMTIHNGMFFSTYDRDNDGWLTSDPRKQCSKEDGGGWWYNRCHAANPNGRYYWGGQYTWDMAKHGTDDGVVWMNWKGSWYSMRKMSMKIRPFFPQQ
modifications: bait human Fc-tagged dimer
Consider B2, for which the binding score was determined as 0.806.

B3: ADP135 (protein)
chain: MTPPRLFWVWLLVAGTQGVNDGDMRLADGGATNQGRVEIFYRGQWGTVCDNLWDLTDASVVCRALGFENATQALGRAAFGQGSGPIMLDEVQCTGTEASLADCKSLGWLKSNCRHERDAGVVCTNETRSTHTLDLSRELSEALGQIFDSQRGCDLSISVNVQGEDALGFCGHTVILTANLEAQALWKEPGSNVTMSVDAECVPMVRDLLRYFYSRRIDITLSSVKCFHKLASAYGARQLQGYCASLFAILLPQDPSFQMPLDLYAYAVATGDALLEKLCLQFLAWNFEALTQAEAWPSVPTDLLQLLLPRSDLAVPSELALLKAVDTWSWGERASHEEVEGLVEKIRFPMMLPEELFELQFNLSLYWSHEALFQKKTLQALEFHTVPFQLLARYKGLNLTEDTYKPRIYTSPTWSAFVTDSSWSARKSQLVYQSRRGPLVKYSSDYFQAPSDYRYYPYQSFQTPQHPSFLFQDKRVSWSLVYLPTIQSCWNYGFSCSSDELPVLGLTKSGGSDRTIAYENKALMLCEGLFVADVTDFEGWKAAIPSALDTNSSKSTSSFPCPAGHFNGFRTVIRPFYLTNSSGVD
modifications: bait human Fc-tagged dimer
In turn, B3 registered a binding score of 0.514.

B4: ADP270 (protein)
chain: ALSPKCLDWWQEGPMYQIYPRSFKDSNKDGNGDLKGIQDKLDYITALNIKTVWITSFYKSSLKDFRYGVEDFREVDPIFGTMEDFENLVAAIHDKGLKLIIDFIPNHTSDKHIWFQLSRTRTGKYTDYYIWHDCTHENGKTIPPNNWLSVYGNSSWHFDEVRNQCYFHQFMKEQPDLNFRNPDVQEEIKEILRFWLTKGVDGFSLDAVKFLLEAKHLRDEIQVNKTQIPDTVTQYSELYHDFTTTQVGMHDIVRSFRQTMDQYSTEPGRYRFMGTEAYAESIDRTVMYYGLPFIQEADFPFNNYLSMLDTVSGNSVYEVITSWMENMPEGKWPNWMIGGPDSSRLTSRLGNQYVNVMNMLLFTLPGTPITYYGEEIGMGNIVAANLNESYDINTLRSKSPMQWDNSSNAGFSEASNTWLPTNSDYHTVNVDVQKTQPRSALKLYQDLSLLHANELLLNRGWFCHLRNDSHYVVYTRELDGIDRIFIVVLNFGESTLLNLHNMISGLPAKMRIRLSTNSADKGSKVDTSGIFLDKGEGLIFEHNTKNLLHRQTAFRDRCFVSNRACYSSVLNILYTSC
modifications: bait human Fc-tagged dimer
For B4, the binding score turned out to be 7.97.

B5: ADP391 (protein)
chain: SSRHVLLQEEVAELQGQVQRTEVARGRLEKRNSDLLLLVDTHKKQIDQKEADYGRLSSRLQAREGLGKRCEDDKVKLQNNISYQMADIHHLKEQLAELRQEFLRQEDQLQDYRKNNTYLVKRLEYESFQCGQQMKELRAQHEENIKKLADQFLEEQKQETQKIQSNDGKELDINNQVVPKNIPKVAENVADKNEEPSSNHIPHGKEQIKRGGDAGMPGIEENDLAKVDDLPPALRKPPISVSQHESHQAISHLPTGQPLSPNMPPDSHINHNGNPGTSKQNPSSPLQRLIPGSNLDSEPRIQTDILKQATKDRVSDFHKLKQSRFFDENESPVDPQHGSKLADYNGDDGNVGEYEADKQAELAYNEEEDGDGGEEDVQGERGPGLHAITMKPTSKFFG
modifications: bait human Fc-tagged dimer
B5 showed a binding score of 0.592.

B6: ADP299 (protein)
chain: MDLRQFLMCLSLCTAFALSKPTEKKDRVHHEPQLSDKVHNDAQSFDYDHDAFLGAEEAKTFDQLTPEESKERLGKIVSKIDGDKDGFVTVDELKDWIKFAQKRWIYEDVERQWKGHDLNEDGLVSWEEYKNATYGYVLDDPDPDDGFNYKQMMVRDERRFKMADKDGDLIATKEEFTAFLHPEEYDYMKDIVVQETMEDIDKNADGFIDLEEYIGDMYSHDGNTDEPEWVKTEREQFVEFRDKNRDGKMDKEETKDWILPSDYDHAEAEARHLVYESDQNKDGKLTKEEIVDKYDLFVGSQATDFGEALVRHDEF
modifications: bait human Fc-tagged dimer
Molecule B6 came in with a binding score of 1.11.

B7: ADP347 (protein)
chain: MAATLGPLGSWQQWRRCLSARDGSRMLLLLLLLGSGQGPQQVGAGQTFEYLKREHSLSKPYQGVGTGSSSLWNLMGNAMVMTQYIRLTPDMQSKQGALWNRVPCFLRDWELQVHFKIHGQGKKNLHGDGLAIWYTKDRMQPGPVFGNMDKFVGLGVFVDTYPNEEKQQERVFPYISAMVNNGSLSYDHERDGRPTELGGCTAIVRNLHYDTFLVIRYVKRHLTIMMDIDGKHEWRDCIEVPGVRLPRGYYFGTSSITGDLSDNHDVISLKLFELTVERTPEEEKLHRDVFLPSVDNMKLPEMTAPLPPLSGLA
modifications: bait human Fc-tagged dimer
The molecule B7 returned a binding score of 0.741.

B8: ADP109 (protein)
chain: MGIQGGSVLFGLLLVLAVFCHSGHSLQCYNCPNPTADCKTAVNCSSDFDACLITKAGLQVYNKCWKFEHCNFNDVTTRLRENELTYYCCKKDLCNFNEQLEN
modifications: bait human Fc-tagged dimer
B8 displayed a binding score of 1.68.

B9: ADP159 (protein)
chain: MAALRPTLLPPSLPLLLLLMLGMGCWAREVLVPEGPLYRVAGTAVSISCNVTGYEGPAQQNFEWFLYRPEAPDTALGIVSTKDTQFSYAVFKSRVVAGEVQVQRLQGDAVVLKIARLQAQDAGIYECHTPSTDTRYLGSYSGKVELRVLPDVLQVSAAPPGPRGRQAPTSPPRMTVHEGQELALGCLARTSTQKHTHLAVSFGRSVPEAPVGRSTLQEVVGIRSDLAVEAGAPYAERLAAGELRLGKEGTDRYRMVVGGAQAGDAGTYHCTAAEWIQDPDGSWAQIAEKRAVLAHVDVQTLSSQLAVTVGPGERRIGPGEPLELLCNVSGALPPAGRHAAYSVGWEMAPAGAPGPGRLVAQLDTEGVGSLGPGYEGRHIAMEKVASRTYRLRLEAARPGDAGTYRCLAKAYVRGSGTRLREAASARSRPLPVHVREEGVVLEAVAWLAGGTVYRGETASLLCNISVRGGPPGLRLAASWWVERPEDGELSSVPAQLVGGVGQDGVAELGVRPGGGPVSVELVGPRSHRLRLHSLGPEDEGVYHCAPSAWVQHADYSWYQAGSARSGPVTVYPYMHALDT
modifications: bait human Fc-tagged dimer
Regarding B9, the binding score came to 0.885.

B10: ADP153 (protein)
chain: MAGIWTLLPLVLTSVARLSSKSVNAQVTDINSKGLELRKTVTTVETQNLEGLHHDGQFCHKPCPPGERKARDCTVNGDEPDCVPCQEGKEYTDKAHFSSKCRRCRLCDEGHGLEVEINCTRTQNTKCRCKPNFFCNSTVCEHCDPCTKCEHGIIKECTLTSNTKCKEEGS
modifications: bait human Fc-tagged dimer
Regarding B10, the binding score worked out at 1.01.

B11: ADP312 (protein)
chain: MALDRPGEGATMLKTFTVLLFCIRMSLGMTSIVMDPQPELWIESNYPQAPWENITLWCRSPSRISSKFLLLKDKTQMTWIRPSHKTFQVSFLIGALTESNAGLYRCCYWKETGWSKPSKVLELEAPGQLPKPIFWIQAETPALPGCNVNILCHGWLQDLVFMLFKEGYAEPVDYQVPTGTMAIFSIDNLTPEDEGVYICRTHIQMLPTLWSEPSNPLKLVVAGLYPKPTLTAHPGPIMAPGESLNLRCQGPIYGMTFALMRVEDLEKSFYHKKTIKNEANFFFQSLKIQDTGHYLCFYYDASYRGSLLSDVLKIWVTDTFPKTWLLARPSAVVQMGQNVSLRCRGPVDGVGLALYKKGEDKPLQFLDATSIDDNTSFFLNNVTYSDTGIYSCHYLLTWKTSIRMPSHNTVELMVVDKPPKPSLSAWPSTVFKLGKAITLQCRVSHPVLEFSLEWEERETFQKFSVNGDFIISNVDGKGTGTYSCSYRVETHPNIWSHRSEPLKLMGPAGYLTWNYVLN
modifications: bait human Fc-tagged dimer
Molecule B11 came in with a binding score of 0.61.

B12: ADP372 (protein)
chain: MARAMAAAWPLLLVALLVLSWPPPGTGDVVVQAPTQVPGFLGDSVTLPCYLQVPNMEVTHVSQLTWARHGESGSMAVFHQTQGPSYSESKRLEFVAARLGAELRNASLRMFGLRVEDEGNYTCLFVTFPQGSRSVDIWLRVLAKPQNTAEVQKVQLTGEPVPMARCVSTGGRPPAQITWHSDLGGMPNTSQVPGFLSGTVTVTSLWILVPSSQVDGKNVTCKVEHESFEKPQLLTVNLTVYYPPEVSISGYDNNWYLGQNEATLTCDARSNPEPTGYNWSTTMGPLPPFAVAQGAQLLIRPVDKPINTTLICNVTNALGARQAELTVQVKEGPPSEHSGISRN
modifications: bait human Fc-tagged dimer
In the case of B12, the binding score came to 1.04.

B13: ADP111 (protein)
chain: MVLLRVLILLLSWAAGMGGQYGNPLNKYIRHYEGLSYNVDSLHQKHQRAKRAVSHEDQFLRLDFHAHGRHFNLRMKRDTSLFSDEFKVETSNKVLDYDTSHIYTGHIYGEEGSFSHGSVIDGRFEGFIQTRGGTFYVEPAERYIKDRTLPFHSVIYHEDDINYPHKYGPQGGCADHSVFERMRKYQMTGVEEVTQIPQEEHAANGPELLRKKRTTSAEKNTCQLYIQTDHLFFKYYGTREAVIAQISSHVKAIDTIYQTTDFSGIRNISFMVKRIRINTTADEKDPTNPFRFPNIGVEKFLELNSEQNHDDYCLAYVFTDRDFDDGVLGLAWVGAPSGSSGGICEKSKLYSDGKKKSLNTGIITVQNYGSHVPPKVSHITFAHEVGHNFGSPHDSGTECTPGESKNLGQKENGNYIMYARATSGDKLNNNKFSLCSIRNISQVLEKKRNNCFVESGQPICGNGMVEQGEECDCGYSDQCKDECCFDANQPEGRKCKLKPGKQCSPSQGPCCTAQCAFKSKSEKCRDDSDCAREGICNGFTALCPASDPKPNFTDCNRHTQVCINGQCAGSICEKYGLEECTCASSDGKDDKELCHVCCMKKMDPSTCASTGSVQWSRHFSGRTITLQPGSPCNDFRGYCDVFMRCRLVDADGPLARLKKAIFSPELYENIAEW
modifications: bait human Fc-tagged dimer
B13: the binding score worked out at 0.777.
